One substance from patent publication US20240343806A1 can be followed below.

This assay addresses mouse CTLA4 (mouse) (UniProt P09793). The assay is described as follows: flow cytometry on CHO-mCTLA4 cells; SSC vs Anti-Human-IgGFc-FITC.

Sequence of mouse CTLA4 (mouse) (P09793 36-223 S182T limits assumed): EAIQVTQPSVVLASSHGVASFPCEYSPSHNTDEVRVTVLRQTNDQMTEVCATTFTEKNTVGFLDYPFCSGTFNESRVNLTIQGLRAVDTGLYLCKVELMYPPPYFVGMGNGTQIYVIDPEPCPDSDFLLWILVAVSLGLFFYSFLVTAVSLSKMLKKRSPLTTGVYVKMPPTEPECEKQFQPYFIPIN

NC gave a % cells in the FITC-positive gate of 0.133%.
